Patent publication US7288523B2, “Peptide binding the KLVFF-sequence of amyloid-β” (Neurochem (International) Limited, priority 1995, dated 2007)

Assays:
[1] = Aggregation and fibril formation of Aβ-1-28 peptides (RPLC of supernatant, electron microscopy of pellet); type: physicochemical; conditions: 200 μM, 24 h, 37° C., TBS
Protocol: Aβ-1-28 (FIG. 3A) and AP-1-28^AAVFA (FIG. 3B) were incubated at 200 μM in TBS for 24 h at 37° C. in a shaking water bath. After incubation, the tubes were centrifuged at 20,000 g for 20 min and the content of non-aggregated peptide in the supernatants (FIG. 3A, B) was analyzed using an established C4 RPLC system (12) whereas the aggregated peptides in the pellets were analyzed by electron microscopy after adsorption to formvar-coated grids and negative staining with 2% uranyl acetate in water.

[2] = literature; cited from earlier work
[3] = molecular target: T1, labelled KLVFF (Homo sapiens, UniProt P05067); experiment: Screening of combinatorial D-amino acid pentapeptide libraries with labelled KLVFF; type: binding
T1 construct: with labelled KLVFF
Excerpt: (§1) By screening combinatorial pentapeptide libraries exclusively composed of D-amino acids (lowercase) with labelled KLVFF, several ligands with a motif containing phenylalanine (f) in the second and leucine (l) in the third position were identified (e.g. lflrr). By using a short peptide in the screening, known to bind to a region in Aβ critical for its polymerization (i.e. KLVFF), the risk of identifying D-pentapeptides that interact with nonrelevant regions in Aβ (N- or C-terminal to Aβ-16-20) was eliminated. […] Since peptides built up of D-amino acids are resistant to proteolytic degradation, these ligands may be beneficial for inhibition of amyloidogenesis in vivo.

[4] = molecular target: T2, Aβ-1-40 (Homo sapiens, UniProt P05067); experiment: Aβ-1-40 polymerization alone or coincubated with peptide, electron microscopy; type: biochemical
T2 construct: Incubation of synthetic Aβ-1-40 at 100 μM for 48 h; host or cells: synthetic peptide (chemical synthesis)
Protocol: Aβ-1-40 was incubated at 100 μM in TBS for 48 h at 37° C. in a shaking water bath, either alone or together with 100 μM AcKLVFFNH2. The polymerized material was adsorbed to formvar-coated grids and negatively stained with 2% uranyl acetate in water.

[5] = molecular target: T3, ^125I-labelled Aβ-1-40 (Homo sapiens, UniProt P05067); experiment: SPOT filter-bound peptides incubated with radioactive Aβ-1-40, autoradiography and densitometry; type: binding; conditions: 20 μM ^125I-labelled Aβ-1-40, 20° C., 12 h, TBS pH 7.3; semiquantitative
T3 construct: incubated in the presence of 20 μM ^125I-labelled Aβ-1-40; host or cells: synthetic peptide (chemical synthesis)
Excerpt: a) Ten-mers corresponding to consecutive sequences of Aβ-1-40 were synthesized on a filter matrix using the SPOT-technique (the peptides were synthesized essentially as described by Frank [R. Frank, Tetrahedron 42, 9217-9232 (1992)]. Briefly, a spacer corresponding to 2 molecules of β-alanine was coupled to cellulose membranes (Whatman lChr). The peptides were synthesized on these derivatized membranes using Fmoc protected and pentafluorophenyl-activated amino acids (AMS Biotechnology) dissolved in N-methylpyrrolidone. Coupling efficiency was monitored using bromphenol blue.). We synthesized the thirty-one possible 10-mers of the Aβ-1-40. Peptide no. 1 corresponds to amino acids 1-10, peptide no. 2 to amino acids 2-11 etc. The filter-bound peptides were incubated with radioactive Aβ-1-40. Following washing of the filter in high-salt buffer, bound radioactivity was estimated by autoradiography and densitometry. […] Radioactivity bound to the filter was visualized by autoradiography and quantitated using a densitometer.
b) Peptide no. 11 ([…]) and indicated N- and C-terminal truncated fragments were synthesized using the same technique as described above and analyzed for affinity to ^125I-labelled Aβ-1-40.
d) Each amino acid residue in KLVFF was systematically replaced with A and analyzed for affinity to ^125I-labelled Aβ-1-40. […]

[6] = molecular target: T2, Aβ-1-40; experiment: Surface plasmon resonance spectroscopy (BIAcore 2000), Aβ-1-40 over immobilized peptide; type: binding; conditions: chip derivatized with KLVFF-βA-βA-C; three Aβ-1-40 concentrations, pH 7.4
Protocol: c) Sensorgram from BIAcore 2000. Aβ-1-40, at three different concentrations in running buffer, pH 7.4. Aβ-1-40 was injected during 10 minutes over a sensor-chip derivatized with the peptide KLVFF-βA-βA-C.
c) The interaction between soluble Aβ-1-40 and immobilized KLVFF was monitored in real-time (FIG. 2D) using surface plasmon resonance spectroscopy (BIAcore, Pharmacia) (BIAcore 2000 (Pharmacia Biosensor AB, Sweden) was used for real-time studies based on surface plasmon resonance spectroscopy. The peptide was immobilized using thiol coupling. The running buffer consisted of 10 mM HEPES, 0.15 M NaCl, 3.4 mM EDTA and 0.05% surfactant P20 as described. [U. Jansson, M. Malmqvist, Adv. Biosens. 2, 291-336 (1992)]).
d) AA served as linker between the active peptide and the chip (upper trace) and cysteine alone, indicating non-specific binding, (C) as control (lower trace). Arrows indicate start and stop of injection (FIG. 2D).

[7] = molecular target: T4, Aβ (Aβ-16-20) (Homo sapiens, UniProt P05067); experiment: Binding to Aβ (Example 5)
T4 construct: It is a 40 to 42 amino acids long proteolytic fragment of the Alzheimer amyloid precursor protein (APP)
Excerpt: as §1

[8] = molecular target: T5, Aβ (Homo sapiens, UniProt P05067); experiment: Inhibition of amyloid fibril formation (Example 5); type: biochemical
T5 construct: It is a 40 to 42 amino acids long proteolytic fragment of the Alzheimer amyloid precursor protein (APP)

[9] = WO 95/08999; cited from earlier work
[10] = molecular target: amyloid fibril formation (Homo sapiens, UniProt P05067); conditions: literature; cited from earlier work

Molecule: Aβ-1-28: a well-studied Aβ fragment that readily forms amyloid fibrils [reference compound]
- aggregation (non-aggregated peptide in supernatant) [1]: aggregated
- fibril formation (electron microscopy) [1]: formed large fibril bundles
- formation of amyloid fibrils [2]: readily forms amyloid fibrils

Molecule: lflrr
- identified as ligand of labelled KLVFF [3]: identified

Molecule: AcQKLVFFNH2
- Aβ-1-40 amyloid fibril formation on coincubation with peptide ([4]; 100 μM Aβ-1-40 with equimolar peptide, 48 h, 37° C.): this type of fibrils did not form
- aggregates formed by the peptide itself ([4]; peptide alone, electron microscopy): small rod-like aggregates

Molecule: p3: fragment of Aβ termed p3 and corresponding to Aβ-17-40 or Aβ-17-42 (LVFFAEDVGSNKGAIIGLMVGGVV; P3(40); UniProt P05067 688-711, looked up)
- formation of amyloid fibrils [2]: not capable of forming amyloid in vitro or in vivo

Molecule: Aβ-1-28^AAVFA: mutated Aβ-1-28 where the KLVFF sequence was substituted with AAVFA
- aggregation (non-aggregated peptide in supernatant) [1]: almost completely failed to aggregate
- fibril formation (electron microscopy) [1]: only formed a few dispersed fibrils
- fibril formation (electron microscopy) ([1]; listed as alanine-substituted Aβ-1-28): does not form fibrils

Molecule: Lys-Leu-Val-Phe-Phe [KLVFF]
- binding of radioactive Aβ-1-40 to filter-bound peptide [5]: high Aβ binding capacity
- binding of soluble Aβ-1-40 to immobilized peptide (sensorgram) [6]: not saturable
- binding to Aβ [7]: binds stereo specifically
- inhibition of amyloid fibril formation [8]: inhibit amyloid fibril formation
- amnestic or memory enhancing effect [9]: neither significantly amnestic nor memory enhancing

Molecule: Nc1c(/N=N/c2ccc(-c3ccc(/N=N/c4cc(S(=O)(=O)O)c5ccccc5c4N)cc3)cc2)cc(S(=O)(=O)O)c2ccccc12 [Congo red]
- inhibition of amyloid fibril formation [10]: may have such properties
